According to PMC8354235 (Journal of Virology, 2021):
Several values for one entry are separate records, joined by “and”; a condition that tells them apart may be missing. Equal values may be shown once.

Legend:
[1] = target: T1, histidine-tagged soluble extracellular domain of human transferrin receptor 1 (sTfR1) from BHK cells (human, UniProt P02786); assay: BLI; details: both partners purified
T1 construct: also called hTfR1; sTfR1-His

[2] = target: T1, histidine-tagged soluble extracellular …; assay: ELISA; details: both partners purified

T1 sequence (P02786 89-760): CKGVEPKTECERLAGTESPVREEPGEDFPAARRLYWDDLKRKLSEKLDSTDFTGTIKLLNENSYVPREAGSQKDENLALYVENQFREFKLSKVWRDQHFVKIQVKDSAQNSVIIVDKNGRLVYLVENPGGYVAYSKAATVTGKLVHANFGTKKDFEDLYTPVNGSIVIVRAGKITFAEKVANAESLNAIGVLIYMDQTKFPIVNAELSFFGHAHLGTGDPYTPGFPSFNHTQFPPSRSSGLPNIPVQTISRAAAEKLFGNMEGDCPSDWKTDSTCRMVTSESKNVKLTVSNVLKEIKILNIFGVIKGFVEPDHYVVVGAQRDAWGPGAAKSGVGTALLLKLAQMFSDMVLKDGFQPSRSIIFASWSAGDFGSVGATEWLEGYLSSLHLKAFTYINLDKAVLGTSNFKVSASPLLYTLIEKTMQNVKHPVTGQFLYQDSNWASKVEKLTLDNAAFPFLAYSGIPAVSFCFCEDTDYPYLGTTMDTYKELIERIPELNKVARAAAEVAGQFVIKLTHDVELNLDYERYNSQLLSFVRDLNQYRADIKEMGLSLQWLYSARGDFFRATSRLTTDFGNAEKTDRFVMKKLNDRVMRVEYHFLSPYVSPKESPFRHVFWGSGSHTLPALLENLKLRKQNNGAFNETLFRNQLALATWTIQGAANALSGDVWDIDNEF

B1: OKT9 antigen binding fragment (OKT9-Fab) (Fab, V domains shown)
VH: QIQLQQSGPELVKPGTSMNISCKASGYTFTNYYMHWVRQRPGQGLEWIGWIYPGDGNTHYNEKFKGKTTLTADTSSITAYMLLSSLTSEDSAVYFCARDNSGYVGFPYWGQGTLVTVSA
VL: DIVMTQSPSSLTVTAGERVTMSCKSSQSLFNSANQENYLTWYQQRPGQPPKLLIYWASTRDSGVPDRFTGSGSGTDFTLTISSVQAEDLAVYYCQNDYSYPLTFGAGTKLELK
notes: also called Fab OKT9; OKT9 variable region
For B1, the Kd [1] was 4.9 nM and 4.78 nM and 4.76 nM and 4.82 nM, the koff [1] was 0.0012 s⁻¹ and 0.00125 s⁻¹ and 0.00114 s⁻¹ and the EC50 [2] was 3.69 nM and ~3.66 nM.

B2: murine monoclonal antibody OKT9 (full-length IgG1) (antibody, V domains shown)
VH: QIQLQQSGPELVKPGTSMNISCKASGYTFTNYYMHWVRQRPGQGLEWIGWIYPGDGNTHYNEKFKGKTTLTADTSSITAYMLLSSLTSEDSAVYFCARDNSGYVGFPYWGQGTLVTVSA
VL: DIVMTQSPSSLTVTAGERVTMSCKSSQSLFNSANQENYLTWYQQRPGQPPKLLIYWASTRDSGVPDRFTGSGSGTDFTLTISSVQAEDLAVYYCQNDYSYPLTFGAGTKLELK
notes: also called full-length OKT9
Binder B2 has an EC50 [2] of 0.411 nM.
